Test: soluble on expression in E. coli; label from the status in PepcDB or PDB records

| Sequence | soluble on expression in E. coli |
| --- | --- |
| MGSDKIHHHHHHMHQYTNIKKAIQLSNSFWDVTTAAGMANIATRNLGNGRHEAVASGRQFTNMSSYSYLGLDSHPAILRAAADAVMNTGSLNTSISRIRVQFDILQQAEEALASLVDAETLTVPSCAAAAAATLPLLASGALTGDVAPLMVFDKNAHFCLNMMKPICADETEIQTIRHNDLNALEDLCKTHQRVAYVADGVYSTGGMAPVKELLALQDKYGLFLFFDEAHGLSTLGHLGRGLVLEEMGAINDRTLIVTSLNKGFGASGGAIFLGPRGDAERRKLATRFGGPVTWSQRINTAGLGAIIESVAVHKSAELPALQQKLQDNIRLFDQHVASENSGDRLPIRFVSIGSEERTILYAKSLLEDGYYTSPIFFPVIAKGRAGLRIMIRANMTTEEIERFGACLKQLRASHE | not soluble |
| MGSDKIHHHHHHMHRAGDSCTRDRRSRTAWRAALFQPVRRQRPVSEQCVRCCSSNEQWLDVCRYGSGAQGVGGVRHGNCLSPFTFISRLRRSGMTTDTFGGDLPASTLVPQPSFCVQTRVAHDADEQARNLHGWSQTYDQLTAGCFVGGLTELCLDHMQLFVETTSHTLRQTCEVQKDAYWFGIPACAAGSGRIDAQVIAGDALAFRPGGIEFELLTSAGYEIFGVVVKGEVLRRYAAQVERVGLADPVPNTQVVPIGMARKAQLCATLRQLLDDGAARGTPLSSVARNNLQAAVLASLFDVGALPASEPVAMPARPRRQSIVSEARDYVLLNRDRAVSVPELCEQLHVSRRTLQYCFQDVLGMAPATYLRAIRLNGARRDLSNASRESRSVQDVAAAWGFWHLSQFATDYRKLFGMRPSETLKAATGTRVERAGAFNAVALAHH | not soluble |
| MGSDKIHHHHHHMHVYESDVSWIDDRRTEVSVGDHRIEVDSPPEFGGPEGQLYPETLFPSVLASCLLTTFLEFKDRMGINLKSWNSHVTAELGPSPEKGFKFHRIKIHVKIGVNDEDKEKIPRAMQLAEKYCFISRAIRNNVEEIVDYEFV | not soluble |
| MGSDKIHHHHHHMIACENSGHSIPDDFPEVRKIVEAGVTTNPKKDYELSRYACYLIVQNGDPRKEVIALGQTYFAIQTYRQEVADHFNELDEDNRRLVVRGDIKQWNQMLAETAHNAGVITNEEFAIFQNAGYMGLYGGLDVEGILAAVYQSVFGGDVYLSLEEKVANLLFNEIGNSQVV | not soluble |
| MGSDKIHHHHHHMIDFSLCEVNKFRAYGGANGNKINILYEGNSYMLKFSPVPSRNKAMSYTNGCISEYLACHIFASLGFKTQETLLGTYTDPRGKEKVVVACGDFTEGGKRLIEFAHLKNTCISSEQNGYGKELSSIMQAIDEQMLLPPDQLRDFFWDMFIADALLGNFDRHNGNWGILVDEQSKTAEIAPVYDCGSCLYPQLAAKDMGDVLNSEDEIDRRVYVFPTSSIEEDGKKISYFEFISSLRNPDCTAALKRVSARIDMEKIRMLIDKTPTLLPVQKEFYTVIISERKAKIIDYSMEKLMKLKGQDLERDEQQNGGLQFTM | not soluble |
| MGSDKIHHHHHHMIEIIPAIDIIDGKCVRLSQGDYDSKKVYNENPVEVAKEFEANGVRRLHVVDLDGAASHHVVNHRVLEQIATRTSLIVDFGGGVKSDEDLKIAFESGAQMVTGGSVAVKDPELFCHWLEVYGSEKIILGADVKEHKIAVNGWKDESACELFPFLEDYINKGIQKVICTDISCDGMLKGPSIDLYKEMLEKFPNLYLMASGGVSNVDDIIALNEAGVPGVIFGKALYEGHITLKDLRIFL | not soluble |
| MGSDKIHHHHHHMIFVGCSGWSYEEWNGVFYPKSKINKLKFYSTMFNTVEVNSTFYREINNDIINRWIETVRGKNFIFSIKVPQNITHKAILEKDSNSKSLYETFIDKTVRPIRNARMLGAVLVQLPPSFNSNLQTELLDTICCENEYRTAVEVRNKDLYSNEELRKELEKRGIAIVDVDSTEHPLSNLNSGLKWSYVRLHGRAQLGWKSQNPYDYRYSEQEISDLSSKIMAKNYDEIFVYFNNHPRGSAPINALKMASCLGISNNWFF | not soluble |
| MGSDKIHHHHHHMIGKRFFQTTSKKIAFAFDIDGVLFRGKKPIAGASDALKLLNRNKIPYILLTNGGGFSERARTEFISSKLDVDVSPLQIIQSHTPYKSLVNKYSRILAVGTPSVRGVAEGYGFQDVVHQTDIVRYNRDIAPFSGLSDEQVMEYSRDIPDLTTKKFDAVLVFNDPHDWAADIQIISDAINSENGMLNTLRNEKSGKPSIPIYFSNQDLLWANPYKLNRFGQGAFRLLVRRLYLELNGEPLQDYTLGKPTKLTYDFAHHVLIDWEKRLSGKIGQSVKQKLPLLGTKPSTSPFHAVFMVGDNPASDIIGAQNYGWNSCLVKTGVYNEGDDLKECKPTLIVNDVFDAVTKTLEKYA | not soluble |
| MGSDKIHHHHHHMIHTREEQMEAFGRFLDILDELRVKCPWDRKQTNESLRPNTIEETYELCDALMRDDKKDICKELGDVLLHVAFYAKIGSETGDFDIKDVCDKLCDKLIFRHPHVFGEVKAETAGQVSENWEQLKLKEKDGNKSVLSGVPSALPSLIKAYRIQDKARNVGFDWEEREQVWDKVKEEIREFQVEVANMDKEKAEAEFGDVMFSLINAARLYKINPDNALELTNQKFIRRFNYLEEHTIKEGKNLKDMSLEEMDAIWNEAKRKGL | not soluble |
| MGSDKIHHHHHHMIIEELHIVNFKSIAAADCRFSPKVNCLVGNNGMGKTNLLDALHFLSFCRSHLSVPDNMVVRHGEEMALLQGLYRDESGDGIELLLSIRPGKHKVLRRNKKEYERLSDHIGRFPLVIVSPQDYQLILGGSDERRRFMDQQLCQQDPRYLSALIQYNRHLQQRNTMLKQDRHDDALMDVLELQMGSYAAEICNKRSRFIEDFLPVFNDLYSDISGSAEKVSLSYRSHLADGIPLEELLRRSRPKDYLLGFSSCGVHKDELEMLLGGVLIRKIGSEGQNKTFLISMKLAQFRHQQLHGDETPILLLDDIFDKLDATRVERIIRLVGGNGFGQIFITDTNRKNLDEIIASWSEDYRLFKIENGQIFQ | not soluble |
| MGSDKIHHHHHHMIIENLSQLYPKGYLSKTIGSEATYSIPVDDQFFIVNKAFLSIKEQHLLEALFPISENPTITGNHPWFSYLFQQAKLPAEGTFRMLQIQTNVTKELQAEWQFNLTKMFPDTVDCFSPSNNMYILVEEQSKNTFQQEEIQGIFLTLDTDFDCTSAVFVGNFYSSEDILRRCFHEEQRIFSEELNSSSRTTVFSLTDVALHYFTKEAMSQNVLVEYYRRLLNKDTDIQPIISALWKNQGNISSTAKDLFMHRNTLHYRLEKFFEQTGLSLKKMDDLIFCYLLLRK | not soluble |
| MGSDKIHHHHHHMIIGNCLILKDFSSEPFWGAVEIENGTIKRVLQGEVKVDLDLSGKLVMPALFNTHTHAPMTLLRGVAEDLSFEEWLFSKVLPIEDRLTEKMAYYGTILAQMEMARHGIAGFVDMYFHEEWIAKAVRDFGMRALLTRGLVDSNGDDGGRLEENLKLYNEWNGFEGRIFVGFGPHSPYLCSEEYLKRVFDTAKSLNAPVTIHLYETSKEEYDLEDILNIGLKEVKTIAAHCVHLPERYFGVLKDIPFFVSHNPASNLKLGNGIAPVQRMIEHGMKVTLGTDGAASNNSLNLFFEMRLASLLQKAQNPRNLDVNTCLKMVTYDGAQAMGFKSGKIEEGWNADLVVIDLDLPEMFPVQNIKNHLVHAFSGEVFATMVAGKWIYFDGEYPTIDSEEVKRELARIEKELYSS | soluble |
| MGSDKIHHHHHHMIKFGEAVLGNEIKAIVNVALGKGELIENTFTNALTRGNCVFANLRPNLIVKPLTLVVPRHNIESEIQDELFQGVIQYAVAKAVADLDLDEDLKVVVSVNVPEVPITNLNKRKLFQYFYASAKLAINRALNEYPSKEKVKKEKYRALHPLVGFRDVRLEYPPYLQIALDVPTMENLEFLLQTIPNSDHIILEAGTPLIKKFGLEVIEIMREYFDGFIVADLKTLDTGRVEVRLAFEATANAVAISGVAPKSTIIKAIHECQKCGLISYLDMMNVSEPQKLYDSLKLKPDVVILHRGIDEETFGIKKEWKFKENCLLAIAGGVGVENVEELLKEYQILIVGRAITKSKDPGRVIRMFINKMGYDIDTYRLYFDEDEDIGEEL | not soluble |
| MGSDKIHHHHHHMIKFLYFTDTHIRGTAPKNRLDPFVETLKHKLHEVMEIAETEKVDMLLHGGDVFDRPDLSPNVVGQFAQIFRKTSRPIYAIAGNHDTFGHNPETISRTMLGLLHSFGIIHIIDPQTPVLVEKDGVKVQISGQPYHYDIDQRDPKLDYYPVNVHEADVMVHLVHSMLVEKALPEGIPHTLIDHIWGTSADVLLTGHFHGGFGIKQKDGRYICNPGAIARINNHWTELVRTPTVILGTITKDGIDLKERPLQSAKNGEEVLDRSFLEKSINQEEKLHAFIQQVKEHAEFQSLNMNDVINEIAAMSNVEEPVKQEALRRITVIEEAWKGGEHEYD | not soluble |
| MGSDKIHHHHHHMIKLAQPQAQRLVLLLAGAVRSVLLYPGSHPAVVQQFAHLGSHVTELLRAYPEVRIGIIDGVLFCENHLFFTPTAAEEELAALLTNRHVEAVAFRAGLTPLELERFVELLTRRELLGEQLVAEVKRAGIAAISVELCGSGATEDHSQGDDEYDPGTTYREALDVVTGLFSEVEKGRIPSSDKLRGVVDRMATMIMQDRATLLGLAMIKDYDNYTFCHSVNVGILSMSLGAAAGLQRDELGELGMAGFLHDVGKTRVEITILNKPGRLSSDEYERMKMHSEEGARIVGEMPGVGERIARAVLGHHIRFDRAGYPESARALAFDRFCDIIAVADCYDAITTLRVYKSPLNPKDALLKLRSLAGSHLDSGLVQAFTEMMGRYPVGTLVRLDTNEVAVVFRPDPNGGERPVVKVVADPAGRLLDPAHMKNLARETGTRIVSVVDPLMTAIDVNRYLG | not soluble |
| MGSDKIHHHHHHMILCCGEALIDMLPRETTLGEKGFSPYAGGAVFNTGIALGRLGVASGFFTGLSDDMMGDILRDTLRASHVDFSYCATLSRPTTIAFVKLVDGHATYAFYDENTAGRMITEADLPALGEDCEALHFGAISLIPEPCGSTYEALLNREHKTRVISLDPNIRPGFIKDKAAHMARIRRMAALSDIVKFSDEDLAWFGLDGDEDTLARHWLHHGAKLVVVTRGADGAVGYTADHKVEVPSEKVTVVDTVGAGDTFDAGVLASLKMQNLLTKQQVAKLTEEQIAKALALGSKAAAVTVSRAGANPPFAHEIGL | not soluble |
| MGSDKIHHHHHHMILLVGGEKGGAGKSCLAQNIAVHITQKFNANVLMVDCDPQRTTSDWIQARNEDASLPAINCIQLYGKIRNDLLGLDQRFDYVIVDCGGQDNLAMRAAMSVATYVVLPLRPKRRDLKTLPHMEDMLSTCKMVNPKMVATVVMTQCPALPSQYKRILEAKEVVESFGLRVLDAVTFSRNVYDDSEEQGSSVIEIEPDGKAAAEIRAIADELFAIPPENSYELN | not soluble |
| MGSDKIHHHHHHMINQIYQLTKPKFINVKYQEEAIDQENHILIRPNYMAVCHADQRYYQGKRDPKILNKKLPMAMIHESCGTVISDPTGTYEVGQKVVMIPNQSPMQSDEEFYENYMTGTHFLSSGFDGFMREFVSLPKDRVVAYDAIEDTVAAITEFVSVGMHAMNRLLTLAHSKRERIAVIGDGSLAFVVANIINYTLPEAEIVVIGRHWEKLELFSFAKECYITDNIPEDLAFDHAFECCGGDGTGPAINDLIRYIRPQGTILMMGVSEYKVNLNTRDALEKGLILVGSSRSGRIDFENAIQMMEVKKFANRLKNILYLEEPVREIKDIHRVFATDLNTAFKTVFKWEV | not soluble |
| MGSDKIHHHHHHMIPFHDRPFAEYLVEMLRGQGFRRILFLLGYLPDKVTEHFGDGSRFGVEIEYAVSPVEDETGTRLRRVKDRLDDIFVLLYCDNYWPMPFAAMWERYCRLGVEAMVTVYRNRDGYTRDNLRVDDDGLLALYDKSRTAPGLAGVDIGFFILTRAVIDLIPEGGNPSFEKSVYPVLVERRQLAAFETDHRYYSVGSHERLPLTEAFLARNKTVLLDRDGTLNLRMPRAEYVRSWADWQWLPGAREALAELARADYRIILITNQPGLARGALDQAALDAIHGRMIEETQAAGGRIDHIYYCPHNWDEGCDCRKPRPGMLFQAQRDFHLDLSRVTFIGDDDRDGEAAQAAGAPFLQVTESYSLLDAVHDLLAADHSNPVTGKCPD | not soluble |

Reference: the DeepSol protein solubility set
